The values that follow come from patent US20240092867A1 (UNIVERSITY OF CHICAGO, published 2024).

Assay [1] addresses T1, recombinant human syndecan-2 (human, UniProt P34741 19-144, limits assumed).
T1 construct: Histidine tag of unstated position and length
As to the kind of experiment: ELISA, peptide coated, syndecan 1 µg/mL, anti-His detection. How it is done:
(§1) ELISA tests were performed as described above. In brief, ELISA plates were coated with 1 μg/mL laminin peptide (sequences are described in Table 1, chemically synthesized by Genscript) in PBS for 2 hrs at 37° C. 1 μg/mL of BSA served as non-binding protein control. After blocking with 2% BSA PBS-T solution, 1 μg/mL of the recombinant human syndecan-1, syndecan-2, syndecan-3, syndecan-4 (all syndecan proteins are histidine-tagged; SinoBiological) were added. Bound GF was detected with anti-histidine tag antibody (1:1000 dilution, BioLegend).
On the technique in general: An ELISA detects its analyte on a solid surface through an enzyme-linked reagent.

Assay [2] deals with T2, recombinant human syndecan-4 (human, UniProt P31431 19-145, limits assumed).
T2 construct: Histidine tag of unstated position and length
T2 sequence (looked up): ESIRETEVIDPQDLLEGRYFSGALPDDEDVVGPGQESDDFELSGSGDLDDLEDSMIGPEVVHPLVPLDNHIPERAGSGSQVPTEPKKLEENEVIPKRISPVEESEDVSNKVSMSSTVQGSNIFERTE
The assay is described as above. As to the method:
as §1

In assay [3] the target is T3, recombinant human syndecan-1 (human, UniProt P18827 23-254, limits assumed).
T3 construct: Histidine tag of unstated position and length
T3 sequence (looked up): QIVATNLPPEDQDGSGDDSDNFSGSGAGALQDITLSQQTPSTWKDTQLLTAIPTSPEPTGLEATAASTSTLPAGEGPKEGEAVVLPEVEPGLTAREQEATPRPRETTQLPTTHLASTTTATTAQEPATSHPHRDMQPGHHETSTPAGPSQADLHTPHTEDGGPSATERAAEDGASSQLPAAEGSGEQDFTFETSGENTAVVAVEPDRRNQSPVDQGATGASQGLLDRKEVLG
The assay is described as above. How it is done: as §1

The target in assay [4] is T4, placental growth factor (PlGF)-1 (human, UniProt P49763-2 19-149).
T4 construct: mature; Purchased in mature form
T4 sequence (looked up): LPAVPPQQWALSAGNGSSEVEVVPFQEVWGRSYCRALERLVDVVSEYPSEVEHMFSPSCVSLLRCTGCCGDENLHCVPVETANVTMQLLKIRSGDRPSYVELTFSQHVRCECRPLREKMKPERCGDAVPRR
As to the kind of experiment: ELISA, peptide coated. How it is done:
(§2) (A) The location of laminin-derived peptides in the LG domain of laminin α3, α4, and α5 chains. (B-F) Affinity of heparin and GFs against chemically synthesized peptides derived from the LG domain of laminin α3, α4, and α5 chains. ELISA plates were coated with 10 μg/mL laminin peptide and further incubated with (B) biotinylated heparin, (C) VEGF-A165 and VEGF-A121, (D) PlGF-2 and PlGF-1, (E) PDGF-BB, or (F) FGF-2. Concentrations were 1 μg/mL for GFs and 10 μg/mL for heparin. Bound heparin was detected with streptavidin, and bound GFs with a specific antibody for each GF (n=4, mean±SEM). Statistical analyses were done using the Mann-Whitney U test by comparing the signals obtained from the laminin peptide- and the BSA-coated wells. *p<0.05, **p<0.01.
(§3) ELISA tests were performed as described above. […] 1 μg/mL of BSA served as non-binding protein control. After blocking with 2% BSA PBS-0.05% Tween 20 (PBS-T) solution, 1 μg/mL of the recombinant human proteins (VEGF-A121, VEGF-A165, PlGF-1, PlGF-2, PDGF-BB or FGF-2) or 10 μg/mL of biotinylated heparin (Sigma-Aldrich) were added. Bound GF was detected with biotinylated antibodies for human VEGF, PlGF, PDGF-BB, or FGF-2 (R&D Systems). The antibodies were detected by streptavidin-HRP (R&D Systems).

Assay [5] addresses T5, vascular endothelial growth factor (VEGF)-A121 (human, UniProt P15692-9 27-147).
T5 construct: mature; Purchased in mature form, not glycosylated
T5 sequence (looked up): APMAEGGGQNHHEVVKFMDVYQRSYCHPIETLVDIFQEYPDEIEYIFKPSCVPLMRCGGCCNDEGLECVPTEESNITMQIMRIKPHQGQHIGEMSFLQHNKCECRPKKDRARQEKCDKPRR
As to the kind of experiment: ELISA, peptide coated. As to the method: as §2, §3

Assay [6] has as its target T6, placental growth factor (PlGF)-2 (human, UniProt P49763-3 19-170).
T6 construct: mature; Purchased in mature form
T6 sequence (looked up): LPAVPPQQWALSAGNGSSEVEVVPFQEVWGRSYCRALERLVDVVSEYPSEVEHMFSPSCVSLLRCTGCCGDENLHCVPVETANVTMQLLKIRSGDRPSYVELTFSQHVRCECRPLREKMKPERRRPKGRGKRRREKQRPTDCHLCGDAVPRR
As to the kind of experiment: ELISA, peptide coated, GF 1 µg/mL. As to the method:
as §2, §3

The target in assay [7] is T7, vascular endothelial growth factor (VEGF)-A165 (human, UniProt P15692-4 27-191).
T7 construct: mature; Purchased in mature form, not glycosylated
As to the kind of experiment: ELISA, peptide coated, GF 1 µg/mL. How it is done: as §2, §3

Assay [8] has as its target T8, platelet-derived growth factor (PDGF)-BB (human, UniProt P01127 82-190).
T8 construct: mature; Purchased in mature form
As to the kind of experiment: ELISA, peptide coated, GF 1 µg/mL. How it is done:
as §2, §3

The target of assay [9] is T9, fibroblast growth factor (FGF)-2 (human, UniProt P09038 143-288).
T9 construct: mature; Purchased in mature form
As to the kind of experiment: ELISA, peptide coated, GF 1 µg/mL. How it is done:
as §2, §3

The target in a further assay is T10, laminin-411 (human, UniProt Q16363 25-1823; P07942 22-1786; P11047 34-1609).
T10 construct: Full-length recombinant human laminin isoform (BioLamina); chains read from the isoform name
As to the kind of experiment: ELISA, GF coated, laminin 10 nM. How it is done:
(§4) ELISA tests were performed as previously reported. In brief, ELISA plates (med-binding, Greiner Bio-One) were coated with 50 nM GFs at 37° C. for more than 2 hrs. […] Bound laminin was detected with rabbit anti-human laminin γ1 chain antibody (1:1000 dilution, Assay biotech) or rabbit anti-human laminin α3 chain antibody (1:1000 dilution, Assay biotech). After incubation with biotinylated anti-rabbit antibody for 60 min at room temperature (RT), HRP conjugated streptavidin (Jackson ImmunoResearch) was added. After 60 min of incubation at RT, 50 μL TMB substrate (Sigma-Aldrich) was added. The reactions were stopped by adding 25 μL of 2 N H₂SO₄. Subsequently, the absorbance at 450 nm was measured with a reference of 570 nm.

Another assay deals with T11, laminin-111 (human, UniProt P25391 18-3075; P07942 22-1786; P11047 34-1609).
T11 construct: Full-length recombinant human laminin isoform (BioLamina); Chain composition is read from the isoform name
As to the kind of experiment: ELISA, GF coated, laminin 10 nM. How it is done: as §4

Another assay has as its target T12, laminin-421 (human, UniProt Q16363 25-1823; P55268 33-1798; P11047 34-1609).
T12 construct: Full-length recombinant human laminin isoform (BioLamina); chains read from the isoform name
As to the kind of experiment: ELISA, GF coated, laminin 10 nM. As to the method: as §4

The next assay deals with T13, laminin-521 (human, UniProt O15230 36-3695; P55268 33-1798; P11047 34-1609).
T13 construct: Full-length recombinant human laminin isoform (BioLamina); chains read from the isoform name
As to the kind of experiment: ELISA, GF coated, laminin 10 nM. As to the method: as §4

Another assay addresses T14, laminin-211 (human, UniProt P24043 23-3122; P07942 22-1786; P11047 34-1609).
T14 construct: Full-length recombinant human laminin isoform (BioLamina); chains read from the isoform name
As to the kind of experiment: ELISA, GF coated, laminin 10 nM. As to the method: as §4

The target of another assay is T15, laminin-511 (human, UniProt O15230 36-3695; P07942 22-1786; P11047 34-1609).
T15 construct: Full-length recombinant human laminin isoform (BioLamina); chains read from the isoform name
As to the kind of experiment: ELISA, GF coated, laminin 10 nM. As to the method: as §4

Another assay concerns the target T16, laminin-332 (human, UniProt Q16787 28-1724; Q13751 18-1172; Q13753 22-1193, limits assumed).
T16 construct: Full-length recombinant human laminin isoform (BioLamina); chains read from the isoform name
As to the kind of experiment: ELISA, GF coated, laminin 10 nM. As to the method:
as §4

The target in another assay is T17, human plasma-derived vWF (human, UniProt P04275 764-2813).
T17 construct: mature; also called plasma-derived purified vWF; von Willebrand factor
As to the kind of experiment: ELISA, GF coated 50 nM, vWF 1 µg/mL. How it is done:
ELISA tests were performed as previously reported1. In brief, ELISA plates (med-binding, Greiner Bio-One) were coated with 50 nM GFs at 37° C. for 2 hrs. […] Then, HRP conjugated goat anti-rabbit antibody (Jackson ImmunoResearch) was added. After 60 min of incubation, 50 μL TMB substrate (Sigma-Aldrich) was added. The reaction was stopped by adding 25 μL of 2N H2SO4. Subsequently, the absorbance at 450 nm was measured and subtracted the absorbance at 570 nm.

Assay [10] concerns the target T7, vascular endothelial growth factor …. As to the kind of experiment: ELISA, HBD peptides.
Target sequence in this assay (P15692 other isoform, or with tags, fused parts or gaps limits assumed): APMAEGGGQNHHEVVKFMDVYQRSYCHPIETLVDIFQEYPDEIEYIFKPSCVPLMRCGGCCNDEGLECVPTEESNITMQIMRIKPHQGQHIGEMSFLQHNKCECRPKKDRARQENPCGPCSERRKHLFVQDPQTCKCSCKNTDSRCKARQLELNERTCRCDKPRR
Assay [11] deals with T8, platelet-derived growth factor (PDGF)-BB. As to the kind of experiment: ELISA, HBD peptides.
Assay [12] addresses T9, fibroblast growth factor (FGF)-2. As to the kind of experiment: ELISA, HBD peptides.

T8 sequence (P01127 82-190): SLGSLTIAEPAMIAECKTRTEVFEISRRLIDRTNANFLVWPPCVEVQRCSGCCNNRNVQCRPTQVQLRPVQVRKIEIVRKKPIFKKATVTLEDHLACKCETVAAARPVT
T9 sequence (P09038 143-288): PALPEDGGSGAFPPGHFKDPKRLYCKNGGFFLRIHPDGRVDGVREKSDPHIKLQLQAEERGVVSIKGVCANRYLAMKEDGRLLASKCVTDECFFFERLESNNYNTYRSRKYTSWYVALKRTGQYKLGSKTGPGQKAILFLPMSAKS
T1 sequence (P34741 19-144 limits assumed): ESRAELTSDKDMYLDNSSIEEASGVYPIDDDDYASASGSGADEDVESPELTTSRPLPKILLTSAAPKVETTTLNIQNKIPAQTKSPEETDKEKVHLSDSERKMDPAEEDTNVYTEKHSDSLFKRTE
T16 sequence (Q16787 other isoform, or with tags, fused parts or gaps limits assumed, chain 1 of 3): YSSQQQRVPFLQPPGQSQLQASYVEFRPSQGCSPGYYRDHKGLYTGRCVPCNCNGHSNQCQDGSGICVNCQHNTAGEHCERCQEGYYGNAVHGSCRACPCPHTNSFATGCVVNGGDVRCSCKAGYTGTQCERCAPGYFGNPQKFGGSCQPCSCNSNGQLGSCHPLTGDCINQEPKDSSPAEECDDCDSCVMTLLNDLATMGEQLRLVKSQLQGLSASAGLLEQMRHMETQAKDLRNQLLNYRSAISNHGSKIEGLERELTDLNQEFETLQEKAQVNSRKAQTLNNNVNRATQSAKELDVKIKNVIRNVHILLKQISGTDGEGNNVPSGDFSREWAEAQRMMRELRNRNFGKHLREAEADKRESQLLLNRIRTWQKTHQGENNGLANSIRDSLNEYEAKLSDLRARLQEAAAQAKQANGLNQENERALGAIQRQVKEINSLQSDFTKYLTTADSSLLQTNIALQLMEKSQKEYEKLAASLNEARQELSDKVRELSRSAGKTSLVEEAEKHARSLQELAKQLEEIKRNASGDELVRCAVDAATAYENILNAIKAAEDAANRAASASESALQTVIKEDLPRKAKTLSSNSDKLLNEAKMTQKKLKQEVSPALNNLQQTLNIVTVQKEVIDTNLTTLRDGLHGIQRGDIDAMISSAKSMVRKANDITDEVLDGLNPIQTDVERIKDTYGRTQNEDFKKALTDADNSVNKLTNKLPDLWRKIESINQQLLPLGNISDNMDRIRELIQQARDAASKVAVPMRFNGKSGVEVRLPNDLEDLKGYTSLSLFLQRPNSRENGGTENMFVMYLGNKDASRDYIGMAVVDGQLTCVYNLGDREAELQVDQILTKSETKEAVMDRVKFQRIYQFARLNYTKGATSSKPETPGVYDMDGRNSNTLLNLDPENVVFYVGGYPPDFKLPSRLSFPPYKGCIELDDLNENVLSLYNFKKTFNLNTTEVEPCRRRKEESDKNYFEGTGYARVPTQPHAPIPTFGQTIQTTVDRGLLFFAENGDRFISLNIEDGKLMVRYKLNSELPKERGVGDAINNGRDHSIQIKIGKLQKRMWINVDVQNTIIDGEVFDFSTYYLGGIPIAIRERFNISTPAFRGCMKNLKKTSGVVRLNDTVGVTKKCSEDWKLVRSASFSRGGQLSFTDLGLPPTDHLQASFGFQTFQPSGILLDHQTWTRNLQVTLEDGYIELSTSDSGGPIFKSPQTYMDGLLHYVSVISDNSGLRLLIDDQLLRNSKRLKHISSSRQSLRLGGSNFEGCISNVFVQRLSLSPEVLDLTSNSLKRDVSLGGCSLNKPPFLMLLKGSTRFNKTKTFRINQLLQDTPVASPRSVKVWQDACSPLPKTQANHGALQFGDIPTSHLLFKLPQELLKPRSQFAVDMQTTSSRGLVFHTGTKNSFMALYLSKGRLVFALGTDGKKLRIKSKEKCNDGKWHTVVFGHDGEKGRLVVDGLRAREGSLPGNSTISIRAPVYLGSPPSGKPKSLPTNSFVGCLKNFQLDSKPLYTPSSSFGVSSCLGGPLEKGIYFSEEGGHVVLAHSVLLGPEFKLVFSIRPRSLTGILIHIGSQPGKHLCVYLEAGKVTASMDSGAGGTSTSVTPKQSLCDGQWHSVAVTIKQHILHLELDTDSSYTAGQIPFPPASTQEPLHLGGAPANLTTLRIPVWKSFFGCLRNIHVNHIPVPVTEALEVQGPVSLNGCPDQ
T16 sequence (Q13751 18-1172 limits assumed, chain 2 of 3): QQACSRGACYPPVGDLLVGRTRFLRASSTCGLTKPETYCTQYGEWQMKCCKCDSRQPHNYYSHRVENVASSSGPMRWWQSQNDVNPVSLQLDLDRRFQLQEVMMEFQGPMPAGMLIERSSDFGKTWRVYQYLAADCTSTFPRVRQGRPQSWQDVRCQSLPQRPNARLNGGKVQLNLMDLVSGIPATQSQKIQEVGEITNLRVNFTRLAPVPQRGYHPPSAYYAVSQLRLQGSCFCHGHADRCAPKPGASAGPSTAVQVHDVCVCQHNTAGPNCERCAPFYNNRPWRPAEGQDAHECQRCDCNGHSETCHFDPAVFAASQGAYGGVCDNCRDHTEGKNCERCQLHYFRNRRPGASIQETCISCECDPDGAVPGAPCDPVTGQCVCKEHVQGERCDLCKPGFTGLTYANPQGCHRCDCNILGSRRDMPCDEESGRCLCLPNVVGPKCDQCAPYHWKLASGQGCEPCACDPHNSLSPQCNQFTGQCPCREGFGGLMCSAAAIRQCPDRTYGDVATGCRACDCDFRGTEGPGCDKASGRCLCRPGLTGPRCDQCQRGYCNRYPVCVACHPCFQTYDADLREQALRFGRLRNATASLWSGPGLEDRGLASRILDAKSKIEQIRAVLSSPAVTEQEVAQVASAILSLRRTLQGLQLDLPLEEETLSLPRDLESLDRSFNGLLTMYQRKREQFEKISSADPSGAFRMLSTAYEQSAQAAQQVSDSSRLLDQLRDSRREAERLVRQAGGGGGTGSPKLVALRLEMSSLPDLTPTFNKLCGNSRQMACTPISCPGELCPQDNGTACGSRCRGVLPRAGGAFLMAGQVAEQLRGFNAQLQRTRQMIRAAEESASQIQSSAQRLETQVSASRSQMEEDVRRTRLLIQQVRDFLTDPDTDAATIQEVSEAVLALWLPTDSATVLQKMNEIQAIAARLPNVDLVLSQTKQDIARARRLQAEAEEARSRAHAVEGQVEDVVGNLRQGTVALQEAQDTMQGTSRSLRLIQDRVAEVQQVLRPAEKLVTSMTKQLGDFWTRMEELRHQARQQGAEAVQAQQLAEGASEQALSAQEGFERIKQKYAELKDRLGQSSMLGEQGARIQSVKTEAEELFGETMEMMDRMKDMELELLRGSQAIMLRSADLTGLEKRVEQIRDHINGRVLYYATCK
T16 sequence (Q13753 22-1193 limits assumed, chain 3 of 3): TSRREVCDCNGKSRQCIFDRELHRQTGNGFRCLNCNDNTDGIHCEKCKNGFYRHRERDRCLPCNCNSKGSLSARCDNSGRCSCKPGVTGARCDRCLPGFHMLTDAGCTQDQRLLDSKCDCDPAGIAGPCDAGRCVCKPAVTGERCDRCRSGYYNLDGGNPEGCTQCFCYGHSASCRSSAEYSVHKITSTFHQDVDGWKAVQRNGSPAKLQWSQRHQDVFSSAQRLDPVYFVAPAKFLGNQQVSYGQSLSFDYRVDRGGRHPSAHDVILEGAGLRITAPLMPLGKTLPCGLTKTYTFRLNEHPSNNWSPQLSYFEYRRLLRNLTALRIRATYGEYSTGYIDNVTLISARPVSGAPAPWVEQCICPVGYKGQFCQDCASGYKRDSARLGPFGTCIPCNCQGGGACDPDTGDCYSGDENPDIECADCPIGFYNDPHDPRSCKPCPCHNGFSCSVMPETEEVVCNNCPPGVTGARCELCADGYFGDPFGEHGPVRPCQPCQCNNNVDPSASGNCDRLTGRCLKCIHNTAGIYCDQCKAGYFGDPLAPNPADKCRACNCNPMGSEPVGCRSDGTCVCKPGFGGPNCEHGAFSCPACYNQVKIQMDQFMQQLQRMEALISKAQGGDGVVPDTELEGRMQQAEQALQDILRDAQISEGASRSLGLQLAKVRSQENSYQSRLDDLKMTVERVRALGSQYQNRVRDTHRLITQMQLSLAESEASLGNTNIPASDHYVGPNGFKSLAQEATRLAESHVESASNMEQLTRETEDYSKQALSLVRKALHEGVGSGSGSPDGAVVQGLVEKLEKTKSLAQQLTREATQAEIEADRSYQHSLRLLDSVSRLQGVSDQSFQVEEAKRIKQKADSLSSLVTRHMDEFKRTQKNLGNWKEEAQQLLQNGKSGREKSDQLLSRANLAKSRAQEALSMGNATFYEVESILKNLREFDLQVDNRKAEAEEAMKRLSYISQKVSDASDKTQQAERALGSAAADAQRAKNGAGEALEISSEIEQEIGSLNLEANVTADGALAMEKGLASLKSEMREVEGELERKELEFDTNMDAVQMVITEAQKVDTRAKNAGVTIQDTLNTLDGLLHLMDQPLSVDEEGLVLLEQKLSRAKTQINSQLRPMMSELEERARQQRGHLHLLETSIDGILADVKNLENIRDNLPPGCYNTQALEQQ

B1: laminin α3 3043-3067 peptide (LG4) (peptide)
peptide: RLVFALGTDGKKLRIKSKEKCNDGK
notes: Chemically synthesized (Genscript)
Regarding B1, the binding result in [1] is listed as “binds”; in assay [2], “binds”; in [3], “binds”; in [4] it was “no binding (tested: 1 µg/mL)”; in assay [5] it was “no binding (tested: 1 µg/mL)”; in assay [6], “binds”. Besides, the binding result in assay [7], in [8] and in assay [9] was “binds” each time.

B2: laminin α4 1408-1434 peptide (Linker) (peptide)
peptide: PLFLLHKKGKNLSKPKASQNKKGGKSK
notes: as for B1
As to B2, the binding result in assay [1] is “binds”; in [2] it was “binds”; in [3] it was “binds”; in [4], “no binding (tested: 1 µg/mL)”; in assay [5], “no binding (tested: 1 µg/mL)”; in assay [6], “binds”. The binding result in [7], in assay [8] and in assay [9] was “binds” each time.

B3: fibroblast growth factor (FGF)-6 (ligand, UniProt P10767 38-208, looked up)
chain: SPAGTRANNTLLDSRGWGTLLSRSRAGLAGEIAGVNWESGYLVGIKRQRRLYCNVGIGFHLQVLPDGRISGTHEENPYSLLEISTVERGVVSLFGVRSALFVAMNSKGRLYATPSFQEECKFRETLLPNNYNAYESDLYQGTYIALSKYGRVKRGSKVSPIMTVTHFLPRI
notes: mature; Purchased in mature form
On to B3, for which the binding result with laminin-411, in the assay with laminin-111, with laminin-421, with laminin-521, with laminin-211 and with laminin-511 was “no binding (tested: A450 0.1)” each time. Further, the binding result with laminin-332 was “no binding (tested: A450 0.1)”; with human plasma-derived vWF it was “no binding”.

B4: bone morphogenetic protein (BMP)-7 (ligand, UniProt P18075 293-431, looked up)
chain: STGSKQRSQNRSKTPKNQEALRMANVAENSSSDQRQACKKHELYVSFRDLGWQDWIIAPEGYAAYYCEGECAFPLNSYMNATNHAIVQTLVHFINPETVPKPCCAPTQLNAISVLYFDDSSNVILKKYRNMVVRACGCH
notes: as for B3
For the molecule B4, the binding result in the assay with laminin-411, with laminin-111, in the assay with laminin-421, with laminin-521, with laminin-211 and with laminin-511 was “no binding (tested: A450 0.1)” throughout. Also, the values for the binding result with laminin-332 and in the assay with human plasma-derived vWF were “no binding (tested: A450 0.1)” and “no binding”, respectively.

B5: vWF A1 HBD R1341L (peptide)
peptide: YIGLKDRKRPSELLRIASQVKYA
notes: The entry already carries the substitution
As for B5, the binding result in [10], in assay [11] and in assay [12] was “no binding” in each case.

B6: vWF A1 HBD R1341W (peptide)
peptide: YIGLKDRKRPSELWRIASQVKYA
notes: as for B5
Take B6: the binding result in [10], in [11] and in [12] was “no binding” throughout.

B7: vWF A1 HBD R1341S (peptide)
peptide: YIGLKDRKRPSELSRIASQVKYA
notes: as for B5
Consider B7, for which the binding result in assay [10], in assay [11] and in assay [12] was “no binding” throughout.

B8: vWF A1 HBD R1341Q (peptide)
peptide: YIGLKDRKRPSELQRIASQVKYA
notes: as for B5
Turning to B8, the binding result in assay [10], in assay [11] and in assay [12] was “no binding” throughout.

B9: vWF A1 HBD R1341P (peptide)
peptide: YIGLKDRKRPSELPRIASQVKYA
notes: as for B5
Take B9: the binding result in assay [10], in [11] and in assay [12] was “no binding” in each case.
